Assay [1] has as its target SC1918/H1 (A/South Carolina/1/1918 (H1N1)) HA ectodomain (influenza A virus A/South Carolina/1/1918 (H1N1)) (UniProt Q9WFX3). Put plainly: SPR. A general note: Surface plasmon resonance follows binding to a sensor surface in real time, without labels.
For assay [2], the target named is HB36.3 (HB36 Asp47Ser, Ala60Val), displayed on yeast. As to the kind of experiment: flow cytometry on cells. (In general: Flow cytometry measures light scatter and fluorescence of single cells or particles in a stream.)
The target of assay [3] is HB80 Δ54–95, Met26Thr, Asn36Lys, displayed on yeast. Put plainly: flow cytometry on cells.
The target of assay [4] is HB36 Asp47Ser, displayed on yeast. As to the kind of experiment: flow cytometry on cells.
The target of assay [5] is HB36.4 (HB36 Asp47Ser, Ala60Val, Asn64Lys), displayed on yeast. As to the kind of experiment: flow cytometry on cells.
Assay [6] addresses HB80 Asn36Lys, displayed on yeast. As to the kind of experiment: flow cytometry on cells.
Assay [7] concerns the target HB80 Met26Thr, displayed on yeast. Put plainly: flow cytometry on cells.
The target of assay [8] is HB80 Met26Thr Asn36Lys, displayed on yeast. Put plainly: flow cytometry on cells.
For assay [9], the target named is HB80.3 (HB80 Δ54–95, Asp12Gly, Ala24Ser, Met26Thr, Asn36Lys), displayed on yeast. Put plainly: flow cytometry on cells.

Consider four substances from article PMC3164876.

As a reminder, the Kd is the equilibrium constant for the complex coming apart. A low value points to higher affinity. With “HB36.3 (HB36 Asp47Ser, Ala60Val), purified from E. coli (designed binder)”, the equilibrium dissociation constant (Kd) in assay [1] is 29 nM. In other words, the double-digit nanomolar range.

With “HB36.4 (HB36 Asp47Ser, Ala60Val, Asn64Lys), purified from E. coli (designed binder)”, the Kd in assay [1] came out at 22 nM.

As to “HB80.3 (HB80 Δ54–95, Asp12Gly, Ala24Ser, Met26Thr, Asn36Lys), purified from E. coli (designed binder)”, in [1], the Kd came to 38 nM.

On to “SC1918/H1 (A/South Carolina/1/1918 (H1N1)) HA ectodomain (from UniProt Q9WFX3 18-529) (domain or fragment)”, for which the Kd in assay [2] is 4 nM; in [3], 5 nM; in assay [4], 5 nM; in [5] it was 4 nM; in [6], 300 nM; in assay [7], 100 nM. Moreover, the Kd came out at 7.5 nM in [8] and 3 nM in assay [9].
